Experiment [1] has as its target T1, human TIM-3 (T-cell immunoglobulin mucin receptor 3) (human, UniProt Q8TDQ0 22-202, limits assumed).
T1 sequence (looked up): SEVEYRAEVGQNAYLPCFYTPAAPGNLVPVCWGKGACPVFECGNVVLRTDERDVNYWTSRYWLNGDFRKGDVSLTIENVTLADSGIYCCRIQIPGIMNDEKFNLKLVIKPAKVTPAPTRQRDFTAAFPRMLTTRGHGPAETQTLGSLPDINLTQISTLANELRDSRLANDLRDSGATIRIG
Nature of the experiment: ratio of KD at 37 C to KD at 25 C, SPR or Octet. The text has this: (§1) In one typical example, the inventors prepared antibodies using the above HC and LC sequences with matching preceding numbers and tested the so prepared antibodies for TIM3 binding. […] All values are ×10⁻⁹M. anti-TIM-3 IgG1 antibodies were captured on the chip surface using anti-human Fc antibody (SPR) or AHC sensor (Octet), and human TIM-3 was the analyte.
In general terms: In BLI a coated tip is dipped into the sample, and binding shifts an interference pattern.

The target in experiment [2] is T1, human TIM-3 (T-cell immunoglobulin …). Nature of the experiment: SPR (Pioneer FE) or Octet (Red96e), IgG1 captured by anti-human Fc / AHC sensor, human TIM-3 analyte, 37 C.
Description: as §1

For experiment [3] the target is unchanged. Put plainly: SPR (Pioneer FE) or Octet (Red96e), IgG1 captured by anti-human Fc / AHC sensor, human TIM-3 analyte, 25 C.
Description: as §1

Data on six molecules can be found in patent publication US20230287113A1 (NANTBIO, published 2023).

By Kd is commonly meant a measure of binding affinity in units of concentration.

B1: anti-TIM-3 IgG1 antibody 64-6 (antibody, V domains shown)
VH: EVQLVESGGGLVQPGGSLRLSCAASGFTFSRYAMHWVRQAPGKGLEWVSAISGSGGYTYYADSVKGRFTISRDNSKNTLYLQMNSLRAEDTAVYYCARDRHWVLSAFDVWGQGTLVTVSS
VL: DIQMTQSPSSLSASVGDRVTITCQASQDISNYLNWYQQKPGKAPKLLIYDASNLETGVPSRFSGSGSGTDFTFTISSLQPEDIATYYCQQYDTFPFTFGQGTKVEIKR
notes: human IgG1; also called aTIM-3 IgG1 64-6
Take B1: the “KD difference between 25° C. and 37° C. (fold)” value in experiment [1] was found to be 5.43 fold. Moreover, the Kd in experiment [2] amounted to 2.5 nM; in experiment [3], 0.46 nM.

B2: anti-TIM-3 IgG1 antibody 66-6 (antibody, V domains shown)
VH: EVQLVESGGGLVQPGGSLRLSCAASGFTFSKYAMHWVRQAPGKGLEWVSAISGSGGSTYYADSVKGRFTISRDNSKNTLYLQMNSLRAEDTAVYYCARDLDYRFSGFDVWGQGTLVTVSS
VL: DIQMTQSPSSLSASVGDRVTITCQASQDISNYLNWYQQKPGKAPKLLIYDASNLETGVPSRFSGSGSGTDFTFTISSLQPEDIATYYCQQFAAIPLTFGQGTKVEIKR
notes: human IgG1; The printed HC begins with M before EVQL; also called aTIM-3 IgG1 66-6
Turning to B2, the “KD difference between 25° C. and 37° C. (fold)” value in experiment [1] is 4.15 fold. In addition, the Kd is 7.01 nM in experiment [2] and 1.69 nM in experiment [3].

B3: anti-TIM-3 IgG1 antibody 64-39 (antibody, V domains shown)
VH: EVQLVESGGGLVQPGGSLRLSCAASGFTFSRYAMHWVRQAPGKGLEWVSGISGSGGGTYYADSVKGRFTISRDNSKNTLYLQMNSLRAEDTAVYYCARDLDYRVSGFDVWGQGTLVTVSS
VL: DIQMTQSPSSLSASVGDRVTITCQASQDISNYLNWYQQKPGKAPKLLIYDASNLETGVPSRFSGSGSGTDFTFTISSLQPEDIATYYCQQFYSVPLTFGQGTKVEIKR
notes: human IgG1; The printed HC begins with M before EVQL; also called aTIM-3 IgG1 64-39
Take B3: the “KD difference between 25° C. and 37° C. (fold)” value in experiment [1] was determined as 4.18 fold. The Kd in experiment [2] came to 6.39 nM; in experiment [3] it was 1.53 nM.

B4: anti-TIM-3 IgG1 antibody 64-32 (antibody, V domains shown)
VH: EVQLVESGGGLVQPGGSLRLSCAASGFTFSKYAMHWVRQAPGKGLEWVSAISGSGGYTYYADSVKGRFTISRDNSKNTLYLQMNSLRAEDTAVYYCARDLDFRIVGFDVWGQGTLVTVSS
VL: DIQMTQSPSSLSASVGDRVTITCQASQDISNYLNWYQQKPGKAPKLLIYDASNLETGVPSRFSGSGSGTDFTFTISSLQPEDIATYYCQQFNTVPLTFGQGTKVEIKR
notes: human IgG1; The printed HC begins with M before EVQL; also called aTIM-3 IgG1 64-32
With B4, the “KD difference between 25° C. and 37° C. (fold)” value in experiment [1] is 2.36 fold. In addition, the Kd amounted to 0.92 nM in experiment [2] and 0.39 nM in experiment [3].

B5: anti-TIM-3 IgG1 antibody 64-31 (antibody, V domains shown)
VH: EVQLVESGGGLVQPGGSLRLSCAASGFTFSAYAMHWVRQAPGKGLEWVSAINGNGGRTYYADSVKGRFTISRDNSKNTLYLQMNSLRAEDTAVYYCARDLTRTVPFAFDVWGQGTLVTVSS
VL: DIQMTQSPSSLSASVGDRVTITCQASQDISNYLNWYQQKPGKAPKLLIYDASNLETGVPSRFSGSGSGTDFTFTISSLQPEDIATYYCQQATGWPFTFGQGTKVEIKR
notes: human IgG1; The printed HC begins with M before EVQL; also called aTIM-3 IgG1 64-31
As to B5, the “KD difference between 25° C. and 37° C. (fold)” value in experiment [1] is 3.51 fold. In addition, the Kd is 36.5 nM in experiment [2] and 10.4 nM in experiment [3].

B6: anti-TIM-3 IgG1 antibody 64-15 (antibody, V domains shown)
VH: EVQLVESGGGLVQPGGSLRLSCAASGFTFSSYYMHWVRQAPGKGLEWVSGISGSGGSTYYADSVKGRFTISRDNSKNTLYLQMNSLRAEDTAVYYCARGRGAWPFTRVVAFDVWGQGTLVTVSS
VL: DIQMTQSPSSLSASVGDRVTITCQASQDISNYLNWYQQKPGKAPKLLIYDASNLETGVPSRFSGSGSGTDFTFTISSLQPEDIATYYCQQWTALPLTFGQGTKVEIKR
notes: human IgG1; also called aTIM-3 IgG1 64-15
Take B6: the “KD difference between 25° C. and 37° C. (fold)” value in experiment [1] stood at 7.61 fold. For the same molecule, the Kd is 5.4 nM in experiment [2] and 0.71 nM in experiment [3].
